Target: T1, human recombinant biotinylated FcRn (Immunitrack) (human, UniProt P55899 24-297; P61769 21-119, limits assumed, biotinylated (site not stated))
T1 construct: Immobilized on a ProteOn NLC chip for SPR at pH 6.0; also called human FcRn; human recombinant FcRn
Experiment: SPR, human FcRn immobilized, IL-12Fc variants in liquid phase, pH 6.0

fold reduction of affinity against IL-12Fc WT: ~8 fold
B1: human IL-12Fc NHQ (Fc fusion)
chain: IWELKKDVYVVELDWYPDAPGEMVVLTCDTPEEDGITWTLDQSSEVLGSGKTLTIQVKEFGDAGQYTCHKGGEVLSHSLLLLHKKEDGIWSTDILKDQKEPKNKTFLRCEAKNYSGRFTCWWLTTISTDLTFSVKSSRGSSDPQGVTCGAATLSAERVRGDNKEYEYSVECQEDSACPAAEESLPIEVMVDAVHKLKYENYTSSFFIRDIIKPDPPKNLQLKPLKNSRQVEVSWEYPDTWSTPHSYFSLTFCVQVQGKSKREKKDRVFTDKTSATVICRKNASISVRAQDRYYSSSWSEWASVPCSGGGGSGGGGSGGGGSRNLPVATPDPGMFPCLHHSQNLLRAVSNMLQKARQTLEFYPCTSEEIDHEDITKDKTSTVEACLPLELTKNESCLNSRETSFITNGSCLASRKTSFMMALCLSSIYEDLKMYQVEFKTMNAKLLMDPKRQIFLDQNMLAVIDELMQALNFNSETVPQKSSLEEPDFYKTKIKLCILLHAFRIRAVTIDRVMSYLNASKVDKRVESKYGPPCPPCPAPEFLGGPSVFLFPPKPKDTLMNSRTPEVTCVVVDVSQEDPEVQFNWYVDGVEVHNAKTKPREEQFNSTYRVVSVLTVLHQDWLNGKEYKCKVSNKGLPSSIEKTISKAKGQPREPQVYTLPPSPEEMTKNQVSLTCLVKGFYPSDIAVEWESNGQPENNYKTTPPVLDSDGSFFLYSRLTVDKSRWQEGNVFSCSVMHEALHNQYTQKSLSLSLGK
notes: also called NHQ variant

— US20220204633A1 (UNIVERSIT T Z RICH, published 2022)
